{
  "source": "the DeepSol protein solubility set",
  "data": [
    {"test": "soluble on expression in E. coli; label from the status in PepcDB or PDB records", "values": [
      {"sequence": "MTGTERKVFQKYYPPDFDPSKIPRAKGQKNRQFVQRVMTPFNMQCNTCHEYIYKGKKFNMKRETAEGETYLGLKLFRFYFRCPNCLAEITFKTDLENCDYQNEHGATRLFEAVKLYQDQQKQVDEQEAEDAKDPMKMLEKRTMQSRQEMEEMGNLEDLQESSRTKECIDTIGFLSSTDPHIAQAQRIKMMEDEDDRMARELMGITSEGRIERRIKDDEDNSDGADEDDKDIPGPSASVVPSTSSMLKPAIPKLGMDDSGNSRKRNEQRDRFAGIKLIKKAKPSEPSTSSTASSTSSAPPPLPSSAASSGLSLLADYGSGSDSD", "soluble on expression in E. coli": "not soluble"},
      {"sequence": "MSEHQSLPAPEASTEVRVAIVGVGNCASSLVQGVEYYYNADDTSTVPGLMHVRFGPYHVRDVKFVAAFDVDAKKVGFDLSDAIFASENNTIKIADVAPTNVIVQRGPTLDGIGKYYADTIELSDAEPVDVVQALKEAKVDVLVSYLPVGSEEADKFYAQCAIDAGVAFVNALPVFIASDPVWAKKFTDARVPIVGDDIKSQVGATITHRVLAKLFEDRGVQLDRTMQLNVGGNMDFLNMLERERLESKKISKTQAVTSNLKREFKTKDVHIGPSDHVGWLDDRKWAYVRLEGRAFGDVPLNLEYKLEVWDSPNSAGVIIDAVRAAKIAKDRGIGGPVIPASAYLMKSPPEQLPDDIARAQLEEFIIG", "soluble on expression in E. coli": "soluble"},
      {"sequence": "MKIALIGATGMAGSRILEELVSRGHYVKALARDTHKVADTERVMAVDIDLNDHDALVEALRGQDAVISAVRFHGLDANALFNAIHDSKVKRYLVVGGAGSLHVPHQNTRVLDSEDFPEAYKPEAEAAAHFLDKLKEKDDLDWTFISPSAEFGPGKRTGEFRLGKDELLVGEEGSKISAEDFAVALADELEHNNHIQQRFTVGYLEHHHHHH", "soluble on expression in E. coli": "not soluble"},
      {"sequence": "LADTSPMDKKGRKAEDALVVNVRANLYWWEFEYPDYGIITSQELIVPTDQRVYFNLKASDVKHSFWIPSVGGKLDTNTDNENKFFLTFDSKRSKEAGDMFFGKCAELCGPSHALMDFKVKTMSAKEFQGWTKEMKNYKSTAESDLAKQGEELFKEKNCLSCHAVEPNDKRAEAARTAPNLATFGERTKVAGVKEANKENVKAWLKDPDSIKPGNKMTGTYPKLSDSETNALYEYLKGLKAE", "soluble on expression in E. coli": "not soluble"},
      {"sequence": "MTKLQGLQGLKHIKAVVFDMDGTLCLPQPWMFPAMRNAIGLEDKSIDILHFIDTLPTEKEKKEAHDRIELVEAKAMKEMQPQPGLVDIMRYLTKNGISKNICTRNVGAPVETFVKRFIPSELSRFDYIVTREFRPTKPQPDPLLHIASKLNIRPLEMIMVGDSFDDMKSGRSAGCFTVLLKNHVNGHLLLEHKELVDVSVEDLSEIIELIQNMNKESF", "soluble on expression in E. coli": "not soluble"},
      {"sequence": "MKNNKVLVVVGPTAVGKTALGIDLAIKFNGEIISGDSQQVYQGLDIGTAKVTMAEQAQVPHHLIDVRKWTENFSVHDFVIEANQLIKEILDQGKVPIIVGGTGLYIQSLIEGYHLGGQENHEEMMKLREELSLLSDEELFAKVIKINPDISELNRRRAIRFLELQTFGSQDENLGSDYDFLLIGLNADRKVLYDRINQRVDQMMREGLLDEARTLYEQAPEVQAAKGIGYKEFFPYFSGDISLEEAVELVKRNSRRYAKRQLTWFKNRMSVEFEDVFSKNYPEPIFDKVTQFLNLEHHHHHH", "soluble on expression in E. coli": "not soluble"},
      {"sequence": "MEASLYSRVGDKVVCQLCWRFCKLGDGEEGHCRVRRNEGGKIFTTTYGKLSHLESRPIEIKPFFHFLPGSTSMTFSTYSCNFDCPWCQNWSISKATPPEALRETSPEEVVDLALIMGDKSTCASLNEPTLLYEYLLDVFRLAREKGLKNTMVSNGYMSILALKNLKNAGLDAINIDVKGDERVYRDYCNAEVEYVWRVIEKATKLGIHVEVVCLLVSNVVDEEVVREIVREHLRRAGSSIPIHFTRYFPAYRFTAPPTRIEFLEWAVKHAYKEGAEFAYIGNVPGHRFENTHCPDCGELLIRRYSFSTVDNRIRSGCCPKCGREIYGVWV", "soluble on expression in E. coli": "not soluble"},
      {"sequence": "GPGSMLAQCSLFVQPRVFKGLVMRSHAPVACWAASLPWMTQQQRRRSSFASATPAAPSTDAGKGNYFHFFRIAKHPDLDVAALQKKYHNLQRLVHPDQQQVQAQQQQAEAADVAPATSSSPLPFACTSNEAKSSTDVSTYANAAYETLRAPYSRCRYLSRLVKAEEVKGNPLSAAEEEELLVEDDQRTMKAREVRPDAPMSDDFLMEMLAMNELIFAGDSSDEGVRQQWSVLRFDLEDRAVGYFKDAIKSWNDGDMGAFHHIVHEWTYVATALNNLKERMLE", "soluble on expression in E. coli": "not soluble"},
      {"sequence": "MGSDKIHHHHHHMVDSLQKPELEELRPGIKAPAKETILTPRFYTTDFEAMAKMDLSPNEDELRAILEEFRADYNRKHFVRTPEFDGSAADMDPETKKVFVEFLEQSCTSEFSGFLLYKELSRRIKNRNPLLAECFELMARDEARHAGFLNKSMSDFDLQLDLGFLTANKKYTYFKPAYIFYATYLSEKIGYWRYITIFRHLEQHPEYRIYPIFKFFENWCQDENRHGDFFDALMKAQPSTVRGFVAKLWCRFFLLAVFATMYIRDVQRKEFYEALGLDAREYDRHVIAKTNETSARVFPVVLDVDHPKFYDRLETCIANNNQLAAIEATSAPKPVKVLRKLPYYLSNGLQLLKLYLVKPLESDVYQPAVR", "soluble on expression in E. coli": "not soluble"},
      {"sequence": "MEKGSVMSLFIYMSQSMFNFDALTPDFMWYALESIGIRAESGFLPLNSYENRVYQFTDEERRRYVVKFYRPERWSNEQIQEEHDFTLELIDSEIPVAPPVRINGNTLHHYQGYGFALFESVGGRQFEVDNLEQLEGVGRFLGRIHKVGSRQAFQHRPTIGLQEYLYQPREILQNANMIPMHLENSFFNDLDMLIKAIENHWQGSFATIRLHGDCHPGNILWRDGPMFVDLDDSRNGPAVQDLWMLLNGERQDKLMQLDIILEAYQEFCDFNAAELKLIEPLRGLRMVHYMAWLAKRWHDPAFPLAFPWFNEPKYWEGQVLAFKEQIASLEEAPLSLMPQWLEHHHHHH", "soluble on expression in E. coli": "not soluble"},
      {"sequence": "MSSFQLQQLPSLPIKEVFKSLGVCDLLNLCRSSNKSRRLVKKSLKDITFTLKIVAEEKHYKIWLKEDFSKHKARIRAENSNGTSLFKNIRWLMHTFWVETVYLDCTNVEEGDVVKVVEYLKKEKPYYLKLYFECPMISDSLWQLMLNCEADVLIISVDREVKVTFDNVPLLFNCECIILHGVKFSEKGMNLLFKTWQSSKERTLQCVSLTRKLGPFWKKQANEKVVLKGIDVESVEKKRIFKVKKDGIKKSTTYNLVKNDGELATLKFDKQEICFHTENDR", "soluble on expression in E. coli": "not soluble"},
      {"sequence": "LANKQIESRIIQFDVEFPSDEVAKQLSIEKTVPVYHIIRLRKVEGEPYVIEETYMPSNVISELNEDVLHGSVYRHITETLKLTIAGSHRKIRADKSSALDREYLECAPDDPVLEVEQVAFLNTGEPFEYSFARHRYDKFVFSSVHIRK", "soluble on expression in E. coli": "not soluble"},
      {"sequence": "MGFPIPDPYVWDPSFRTFYSIIDDEHKTLFNGIFHLAIDDNADNLGELRRCTGKHFLNEQVLMQASQYQFYDEHKKEHETFIHALDNWKGDVKWAKSWYVNHIKTIDFKYKGKI", "soluble on expression in E. coli": "soluble"},
      {"sequence": "MGSSHHHHHHHSSGLVPRGSHMMRKRARIIYNPTSGKEQFKRELPDALIKLEKAGYETSAYATEKIGDATLEAERAMHENYDVLIAAGGDGTLNEVVNGIAEKPNRPKLGVIPMGTVNDFGRALHIPNDIMGALDVIIEGHSTKVDIGKMNNRYFINLAAGGQLTQVSYETPSKLKSIVGPFAYYIKGFEMLPQMKAVDLRIEYDGNVFQGEALLFFLGLTNSMAGFEKLVPDAKLDDGYFTLIIVEKSNLAELGHIMTLASRGEHTKHPKVIYEKAKAINISSFTDLQLNVDGEYGGKLPANFLNLERHIDVFAPNDIVNEELINNDHVDDNLIEE", "soluble on expression in E. coli": "soluble"},
      {"sequence": "MSTPRIVVGVSGGVDSSVAAWKLAQQGEPIAGLFMQNWADDGSGDCRAEDDRRDAVAVCGVLGIPFHFRDFSGEYWSDVFEHFLAEYAAGRTPNPDVLCNREVKFKHFLDAAQALGAERIATGHYAQVAHRGGRWRLLRGADRGKDQSYFLHQLGQTQLAATLFPIGDLEKSTLRRIAQDAGLPTHAKKDSTGICFIGERDFREFLGRYLPARTGEIRDPQGQRIAEHPGVFYFTLGQREGLNIGGVRGRAAAPWYVVGKDVANNVLYVDQDRDSPLLQSRWLQSEQAHWVTGAPPARRFSCTAQTRYRQPDESCTVDVQDDGSVQVRFERPQRAVTPGQSLVLYDGEECLGGAVIAATDAPLERQLAGSSFSSEVVALEHHHHHH", "soluble on expression in E. coli": "not soluble"},
      {"sequence": "MGSDKIHHHHHHMTKPMHTPPLVPPQAWEAAREQLLVKEKALTRARDALAAERRQMPWMAVEKEYAFEGPEGRVSLVDLFEGRRQLIVYRAFFEPGVFGWPDHACRGCSMVADQVAHLAHLNARDTTLVFVSRAPQADIARLKARMGWQIPWFTVTDSFDADFGVDEWHGTNVFYRDGDRVFRTYFINNRGDEQMGSTWNYLDITPLGRQEVWEDSPEGYPQTPTYKWWNWHDSYVKDAEPDKKWVEVSDAGEAAFRNQD", "soluble on expression in E. coli": "not soluble"},
      {"sequence": "MSLSLPSSHFVLIAEEENNSYWRLVEKGAREAENQFDVLVEYKAPKRSNPEEQLKLIDMAISAKVDGIIVQAVNEEMFTPLINKAVDAGIPVITIDTDAPRSNRVAYIGTDNYYSGTIAGKAMLDDMEGDIHVAVITGSLESSHQKLRVQGFIDMISNEPRVTLVEVEASNISRLEAELKAHQLMEEHPHINAFYGTSALDGIGIVAAAEKLGLDDLYVIAFDTLPENLSLLEQEKIDAIVVQEPFEMGLKSVELLLDIREGQPYSMTNHTHTSIIRKPDLSLLQEHQRLGDEGHHHHHH", "soluble on expression in E. coli": "soluble"},
      {"sequence": "KGPNLTEISKKITESNAVVLAVKEVETLLTSIDELAKAIGKKIKSDVSLDNEADHNGSLMSGAYLISTLITKKISAIKDSGELKAEIEKAKKCSEEFTAKLKGEHTDLGKEGVTDDNAKKAILKTNNDKTKGADELEKLFESVKNLSKAAKEMLTNSVKELTSP", "soluble on expression in E. coli": "soluble"},
      {"sequence": "MGHHHHHHSHMAQLMEVLSVTPTQSPENNDLISYNSVWVACQQMPQIPRDNKAAALLMLTKNVDFVKDAHEEMEQAVEECDPYSGLLNDTEENNSDNHNHEDDVLGFPSNQDLYWSEDDQELIIPCLALVRASKACLKKIRMLVAENGKKDQVAQLDDIVDISDEISPSVDDLALSIYPPMCHLTVRINSAKLVSVLKKALEITKASHVTPQPEDSWIPLLINAIDHCMNRIKELTQSELEL", "soluble on expression in E. coli": "not soluble"},
      {"sequence": "MAHHHHHHVGTGSNDDDDKSPDPTQDVREPPALKYGIVLDAGSSHTSMFVYKWPADKENDTGIVGQHSSCDVQGGGISSYANDPSKAGQSLVRCLEQALRDVPRDRHASTPLYLGATAGMRLLNLTSPEATARVLEAVTQTLTQYPFDFRGARILSGQDEGVFGWVTANYLLENFIKYGWVGRWIRPRKGTLGAMDLGGASTQITFETTSPSEDPGNEVHLRLYGQHYRVYTHSFLCYGRDQILLRLLASALQIHRFHPCWPKGYSTQVLLQEVYQSPCTMGQRPRAFNGSAIVSLSGTSNATLCRDLVSRLFNISSCPFSQCSFNGVFQPPVAGNFIAFSAFYYTVDFLTTVMGLPVGTLKQLEEATEITCNQTWTELQARVPGQKTRLADYCAVAMFIHQLLSRGYHFDERSFREVVFQKKAADTAVGWALGYMLNLTNLIPADLPGLRKGTHF", "soluble on expression in E. coli": "soluble"}
    ]}
  ]
}
